# Experiments:
# [1] = biological target: Full-length kinesin heavy chain (Khc FL), unlabeled (Drosophila) (UniProt P17210); test: mass photometry; coexpressed, copurified Khc–Tm1 complex at 20 nM in PBS
# [2] = biological target: SNAP-tagged full-length kinesin heavy chain (Khc FL), Alexa Fluor 647-labeled (Drosophila) (UniProt P17210); test: single-molecule TIRF colocalisation and motility assay on microtubules; Khc RNP mixes assembled at 500 nM of each component, diluted to 6.25 nM in BRB12 with 2.5 mM MgATP; taxol-stabilized microtubules immobilized by biotin-streptavidin; Cy3-osk 3′ UTR present
# SNAP-tagged full-length kinesin heavy chain (Khc FL), Alexa Fluor 647-labeled (Drosophila), sequence (P17210 whole entry): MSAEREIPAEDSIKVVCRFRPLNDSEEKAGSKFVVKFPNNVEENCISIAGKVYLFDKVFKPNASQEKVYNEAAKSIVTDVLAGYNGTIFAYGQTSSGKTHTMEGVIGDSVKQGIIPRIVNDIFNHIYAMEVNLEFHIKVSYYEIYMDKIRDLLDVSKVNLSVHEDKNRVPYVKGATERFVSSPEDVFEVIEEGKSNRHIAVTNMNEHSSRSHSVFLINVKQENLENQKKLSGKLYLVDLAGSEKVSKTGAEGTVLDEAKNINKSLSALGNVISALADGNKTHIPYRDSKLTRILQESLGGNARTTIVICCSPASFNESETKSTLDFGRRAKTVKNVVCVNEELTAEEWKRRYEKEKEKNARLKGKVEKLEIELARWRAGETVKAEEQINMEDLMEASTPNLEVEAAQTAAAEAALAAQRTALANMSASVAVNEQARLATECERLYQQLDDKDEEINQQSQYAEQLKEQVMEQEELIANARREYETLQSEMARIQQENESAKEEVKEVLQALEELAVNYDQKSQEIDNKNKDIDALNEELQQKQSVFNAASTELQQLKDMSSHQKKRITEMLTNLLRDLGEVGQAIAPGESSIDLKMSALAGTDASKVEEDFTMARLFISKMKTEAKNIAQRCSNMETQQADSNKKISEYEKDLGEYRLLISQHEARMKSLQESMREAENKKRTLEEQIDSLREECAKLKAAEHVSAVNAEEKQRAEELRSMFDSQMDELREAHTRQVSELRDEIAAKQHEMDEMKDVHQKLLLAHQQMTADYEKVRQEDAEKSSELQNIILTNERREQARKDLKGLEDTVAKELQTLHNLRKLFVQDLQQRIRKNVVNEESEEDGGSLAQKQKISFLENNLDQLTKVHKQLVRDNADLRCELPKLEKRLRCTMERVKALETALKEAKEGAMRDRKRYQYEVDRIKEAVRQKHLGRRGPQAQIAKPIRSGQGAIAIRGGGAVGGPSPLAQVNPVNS
# [3] = biological target: SNAP-tagged full-length kinesin heavy chain (Khc FL), Alexa Fluor 647-labeled (UniProt P17210); test: as above; settings: other: single-molecule TIRF colocalisation and motility assay on microtubules
# SNAP-tagged full-length kinesin heavy chain (Khc FL), Alexa Fluor 647-labeled, sequence (P17210 whole entry): as above
# [4] = biological target: SNAP-tagged full-length kinesin heavy chain (Khc FL), Alexa Fluor 647-labeled (Drosophila) (UniProt P17210)
# Full-length kinesin heavy chain (Khc FL), unlabeled (Drosophila), sequence (P17210 whole entry): as above
substance,measurement,setting,value
Full-length Tm1-I/C (Tm1 FL) coexpressed and copurified with Khc FL (natural protein),stoichiometry N,[1],2 Khc per Tm1
"SNAP-Tm1 1-335, fluorescently labeled (domain or fragment)",percent of Khc signals colocalized with Tm1 signals,[2],71%
"SNAP-tagged full-length Tm1-I/C (Tm1 FL), Alexa Fluor 488-labeled","percent of Khc molecules bound to Tm1, corrected for the labeling efficiency of Tm1",[3],~95% of Khc molecules were bound to Tm1
"SNAP-tagged full-length Tm1-I/C (Tm1 FL), Alexa Fluor 488-labeled (natural protein)",mean velocity of microtubule-associated Khc FL complexes in the TIRF motility assay in the presence of Tm1 FL (0.240 µm s^−1 without Tm1),[4],0.099 µm s^−1
same,percent of Khc signals colocalizing with Tm1 signals,[2],44.6%
